# Source: PMC5330279
# Experiments:
# [1] = biological target: hCRBPII E72A (human)
# [2] = biological target: hCRBPII Q108K:K40L:Y60W (human); experiment: SEC
Substance,percent dimer [1] [%],stoichiometry N [2]
hCRBPII E72A (natural protein),50,
hCRBPII Q108K:K40L:Y60W (natural protein),,2
